This assay deals with Tryptase, from human lung (human) (UniProt Q15661). In words: enzyme inhibition, pNA substrate.
Tryptase, from human lung (human), sequence (Q15661 31-275 limits assumed): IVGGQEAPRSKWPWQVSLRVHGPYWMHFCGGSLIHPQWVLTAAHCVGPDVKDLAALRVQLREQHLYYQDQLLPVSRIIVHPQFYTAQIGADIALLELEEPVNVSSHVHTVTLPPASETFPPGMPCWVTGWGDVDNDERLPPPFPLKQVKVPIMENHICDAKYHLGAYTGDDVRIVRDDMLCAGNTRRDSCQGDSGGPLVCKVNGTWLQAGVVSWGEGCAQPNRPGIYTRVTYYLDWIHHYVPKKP

B1: Example 93 (peptide)
peptide: XCTASIPPQCS
HELM: PEPTIDE1{[Nle].C.T.A.S.I.P.P.Q.C.S.[dP].P}$PEPTIDE1,PEPTIDE1,2:R3-10:R3|PEPTIDE1,PEPTIDE1,1:R1-13:R2$$$V2.0
SMILES: CCCC[C@@H]1NC(=O)[C@@H]2CCCN2C(=O)[C@H]2CCCN2C(=O)[C@H](CO)NC(=O)[C@@H]2CSSC[C@H](NC1=O)C(=O)N[C@@H]([C@@H](C)O)C(=O)N[C@@H](C)C(=O)N[C@@H](CO)C(=O)N[C@@H]([C@@H](C)CC)C(=O)N1CCC[C@H]1C(=O)N1CCC[C@H]1C(=O)N[C@@H](CCC(N)=O)C(=O)N2
For orientation: % inhibition means the change of the read-out against control, counted positive when it falls. A higher % inhibition goes with strong suppression. The molecule B1 came in with a % inhibition at 100 µM of 5.6%.
